Measured values: patent US20250223280A1
Bridges are numbered along the chain shown (N, C = ends). [ ]: non-standard residue; d: D form. Pro(4S-NH2) = N[C@@H]1CN[C@H](C(=O)O)C1

B1: Compound 64 (peptide)
peptide: cyclo(PDCAWHLGELVWCT[dP])
modifications: disulfide 3-13; not fully specified (residue 1); also: conjugate from starting material A125
B2: Compound 69 (peptide)
peptide: cyclo(PDCAWHLGELVWCT[dP])
modifications: disulfide 3-13; not fully specified (residue 1); also: conjugate from starting material A141
B3: Compound 86 (peptide)
peptide: PDCAWHLGELVWCTP
modifications: residue 1 = (2S,4S)-4-aminoproline; residue 15 = D-Pro; backbone cyclised head to tail; disulfide Cys3-Cys13; 4-amino group of residue 1 acylated with the linker to the sugar ligands
B4: Intermediate 8 (peptide)
peptide: PDCAWHLGELVWCTP
modifications: residue 1 = (2S,4S)-4-aminoproline; residue 15 = D-Pro; backbone cyclised head to tail; disulfide Cys3-Cys13; 4-amino group of residue 1 acylated (linker only in a drawing; the mass fits hex-5-ynoyl)
B5: Compound 85 (peptide)
peptide: PDCAWHLGELVWCTP
modifications: residue 1 = (2S,4S)-4-aminoproline; residue 15 = D-Pro; backbone cyclised head to tail; disulfide Cys3-Cys13; 4-amino group of residue 1 acylated with the linker to the sugar ligands
B6: Compound 63 (peptide)
peptide: cyclo(PDCAWHLGELVWCT[dP])
modifications: disulfide 3-13; not fully specified (residue 1); also: conjugate from starting material A40
B7: Compound 66 (peptide)
peptide: cyclo(PDCAWHLGELVWCT[dP])
modifications: disulfide 3-13; not fully specified (residue 1); also: conjugate from starting material A138
B8: Compound 95 (peptide)
peptide: cyclo(PDCAWHLGELVWCT[dP])
modifications: disulfide 3-13; not fully specified (residue 1); also: 4-amino group of residue 1 acylated with linker to ASGPR ligands
B9: Compound 68 (peptide)
peptide: cyclo(PDCAWHLGELVWCT[dP])
modifications: disulfide 3-13; not fully specified (residue 1); also: 4-amino of residue 1 acylated with 4-(4-((4-(sugar-methyl)piperazin-1-yl)methyl)piperidin-1-yl)benzoic acid linker to ASGPR ligand (A140), one 6-(trifluoromethyl)pyrazin-2-ylamino sugar
B10: Compound 84 (peptide)
peptide: PDCAWHLGELVWCTP
modifications: residue 1 = (2S,4S)-4-aminoproline; residue 15 = D-Pro; backbone cyclised head to tail; disulfide Cys3-Cys13; 4-amino group of residue 1 acylated with the linker to the sugar ligands
B11: Compound 80 (peptide)
peptide: PDCAWHLGELVWCTP
modifications: not fully specified; residue 1 = (2S,4S)-4-aminoproline; residue 15 = D-Pro; backbone cyclised head to tail; disulfide Cys3-Cys13; 4-amino group of residue 1 acylated with the butanoyl-triazole linker to the ASGPR ligand
B12: Compound 65 (peptide)
peptide: cyclo(PDCAWHLGELVWCT[dP])
modifications: disulfide 3-13; not fully specified (residue 1); also: conjugate from starting material A137, ligand number not given here
B13: Compound 72 (peptide)
peptide: cyclo(PDCAWHLGELVWCT[dP])
modifications: disulfide 3-13; not fully specified (residue 1); also: conjugate from starting material A144
B14: Intermediate 14 (peptide)
peptide: cyclo([Pro(4S-NH2)]DCSWHLGELVWCT[dP])
modifications: disulfide 3-13
SMILES: CC(C)C[C@@H]1NC(=O)[C@H](Cc2c[nH]cn2)NC(=O)[C@H](Cc2c[nH]c3ccccc23)NC(=O)[C@H](CO)NC(=O)[C@@H]2CSSC[C@H](NC(=O)[C@H](Cc3c[nH]c4ccccc34)NC(=O)[C@H](C(C)C)NC(=O)[C@H](CC(C)C)NC(=O)[C@H](CCC(=O)O)NC(=O)CNC1=O)C(=O)N[C@@H]([C@@H](C)O)C(=O)N1CCC[C@@H]1C(=O)N1C[C@@H](N)C[C@H]1C(=O)N[C@@H](CC(=O)O)C(=O)N2
B15: Compound 94 (peptide)
peptide: cyclo(PDCAWHLGELVWCT[dP])
modifications: disulfide 3-13; not fully specified (residue 1); also: 4-amino group of residue 1 acylated with linker to ASGPR ligands
B16: Compound 51 (peptide)
peptide: cyclo(PDCAWHLGELVWCT[dP])
modifications: disulfide 3-13; not fully specified (residue 1); also: conjugate: hex-5-ynoyl peptide (Intermediate 48) clicked to one 6-(trifluoromethyl)pyrazin-2-ylamino sugar azide
B17: Compound 92 (peptide)
peptide: cyclo(PDCAWHLGELVWCT[dP])
modifications: disulfide 3-13; not fully specified (residue 1); also: linker and ASGPR ligand(s) not given here
B18: Compound 61 (peptide)
peptide: cyclo(PDCAWHLGELVWCT[dP])
modifications: disulfide 3-13; not fully specified (residue 1); also: conjugate: Intermediate 11 acylated with phenoxyacetic acid TFP ester carrying one 6-(trifluoromethyl)pyrazin-2-ylamino sugar
B19: Compound 91 (peptide)
peptide: PDCAWHLGELVWCTP
modifications: not fully specified; residue 1 = (2S,4R)-4-aminoproline; residue 15 = D-Pro; backbone cyclised head to tail; disulfide Cys3-Cys13; 4-amino group of residue 1 acylated with the linker to the ASGPR ligand
B20: Compound 67 (peptide)
peptide: cyclo(PDCAWHLGELVWCT[dP])
modifications: disulfide 3-13; not fully specified (residue 1); also: conjugate from starting material A139
B21: Compound 52 (peptide)
peptide: cyclo(PDCAWHLGELVWCT[dP])
modifications: disulfide 3-13; not fully specified (residue 1); also: conjugate: hex-5-ynoyl peptide clicked to azide A2
B22: Intermediate 7 (peptide)
peptide: PDCAWHLGELVWCTP
modifications: residue 1 = (2S,4S)-4-aminoproline; residue 15 = D-Pro; backbone cyclised head to tail; disulfide Cys3-Cys13; 4-amino group of residue 1 acylated with 3-(2-(hex-5-ynamido)ethoxy)propanoyl
B23: Intermediate 5 (peptide)
peptide: PDCAWHLGELVWCTP
modifications: residue 1 = (2S,4S)-4-aminoproline (free 4-amino group); residue 15 = D-Pro; backbone cyclised head to tail; disulfide Cys3-Cys13
B24: Intermediate 6 (peptide)
peptide: PDCAWHLGELVWCTP
modifications: residue 1 = (2S,4S)-4-aminoproline; residue 15 = D-Pro; backbone cyclised head to tail; disulfide Cys3-Cys13; 4-amino group of residue 1 acylated with PEG2-propanoyl capped by hex-5-ynamide

The binders below were run against IgG (assay: SPR, IgG immobilised on CM5 chip, compound as analyte; value from the legend of the grade (**** = Kd <100 nM)).

Binder	Kd [nM]
cyclo(PD[(S)‑2‑aminohex‑5‑enoic acid]AWHLGELVW[(S)‑2‑aminopent‑4‑enoic acid]T[dP]) (staple 3-13) [Intermediate 31]	< 100
B1	< 100
B2	< 100
B3	< 100
B4	< 100
B5	< 100
B6	< 100
cyclo(PDCAWHLGELVWCT[dP]) (disulfide 3-13; not fully specified (residue 1)) [Intermediate 30]	< 100
B7	< 100
B8	< 100
B9	< 100
B10	< 100
B11	< 100
B12	< 100
B13	< 100
B14	< 100
B15	< 100
B16	< 100
B17	< 100
B18	< 100
B19	< 100
B20	< 100
cyclo(PDCAWHLGELVWCT[dP]) (disulfide 3-13; not fully specified (residue 1); also: conjugate from acid A32) [Compound 62]	< 100

These binders were tested against IgG (assay: SPR, IgG immobilised on CM5 chip, compound as analyte; value from the legend of the grade (++++ = Kd <100 nM)).

Binder	Kd [nM]
B21	< 100
B22	< 100
B23	< 100
B24	< 100
